Reference: the supplement of paper PMC12042874
± gives the uncertainty stated by the source.

Experiment: amyloid nucleation score (Sup35N fusion, yeast selection) (log enrichment); library NNK2; higher = more nucleation; inactive = no reads after selection
Summary of the method: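 In psi-negative yeast, Sup35N fusions carrying peptides of 20 random codons were induced with 100 μM copper sulfate for 24 hours. The cells then grew 7 days at 30°C on medium lacking adenine and uracil, and plasmid inserts from input and output were Illumina-sequenced, excluding sequences with under 100 input reads. Nucleation score is the DiMSum log enrichment of output over input reads, centred on the mode score of non-aggregating sequences.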

Substance	amyloid nucleation score
WGNVLNLYNR	4.53 ± 0.081
RFLLVRSCQAISNRGNGLRE	5.08 ± 0.042
SGYGAAITVNFDITEHGGM	5.06 ± 0.066
LKCPALRSSSPNDLFVP	0.626 ± 0.65
VWAHL	-0.191 ± 0.35
FRCGRVTFNLVEYTFPPWIW	-0.78 ± 0.63
CESHVSRWYSVS	0.505 ± 0.27
RTYWGRKLNCVQF	6.716 ± 0.04
LLFARK	-0.038 ± 1.1
SYFGDFERFSFSCDHER	-0.471 ± 0.61
WSGLNSNRSVDNPSISTGWS	-0.532 ± 0.56
RSWIFVSLIDCMEWILMNGS	-0.451 ± 1
IFLCFGYYNLEVLCFDTRCQ	3.1 ± 0.064
HNNCNRFCQSIVLH	6.34 ± 0.078
TDWGTLARMGLASLC	inactive
SNFQYSIKGQADRLPIVLVL	-0.373 ± 1
LYRFSNST	-0.968 ± 0.29
SVTVHFENVVDIRYVCVTMG	0.341 ± 0.65
FDTLKLCSMWDLCCHITRVA	5.904 ± 0.044
RYWKFA	0.744 ± 0.74
LTYYLSYCHYRRTYLAGLLQ	-0.249 ± 0.2
ILIVVMCFHSNNKSRDNRIY	-1.46 ± 1
CKKLMLILEFWMCMLSLNIA	3.58 ± 0.072
RSLVLYSGRKVLS	-0.516 ± 0.27
SSGSRRLWSLRSRIAQRNMQ	2.83 ± 0.17

Substance	amyloid nucleation score
WTHDVWSGSYEWARDGLDVK	-0.163 ± 0.79
TVLLSLSYADCSMLWLVRTL	-0.304 ± 1.1
FLSYYFGPFRELVF	-0.287 ± 0.56
YSMRWFVGGFILGYCVCGQV	6.256 ± 0.037
MKGFELSLLVMRHSLELYRI	0.463 ± 0.65
RVHSCCTGKIGYKGVIVISV	0.051 ± 0.43
YVVVINSEQNVETFKGFL	inactive
DLRRSKSFDDTNEHWHSGFR	-0.607 ± 0.64
RNYVIFTSEAKVAADIPLYL	2.45 ± 0.21
DSSRRM	-1.43 ± 0.78
GIQGLSLYRLLSPALWSPSG	0.168 ± 0.49
ACCLIAIWRPI	5.47 ± 0.085
NSYIRHSFLQTRFISTNV	-0.306 ± 0.36
LHSCLMCRTSMWSVSIWLKL	-0.049 ± 0.74
FDDEMVRCIFNYRLSGYRPL	1.47 ± 0.22
RVIARLLMLWFHPPCSSTKR	6.203 ± 0.058
NFTIHTWVYMHRVNPPGILN	inactive
SCDVMIRYLSLGTLSYVRAV	-0.032 ± 1.1
MSLIKTHGKLTVGDVDFPKF	-0.753 ± 0.44
LSRIRVHSIRLYSVFPVMFC	3.67 ± 0.072
VISYMFRSTGVFNT	2.73 ± 0.19
AFAFINIWKHLYIFQGQPSL	inactive
TTRSIMQCDLGTNPFDNTCS	0.203 ± 0.41
CTSMGA	-0.291 ± 0.79
SASFRGG	-0.935 ± 0.48

Substance	amyloid nucleation score
MSIEKCICLICSINMEVVGF	6.821 ± 0.059
SVYAGVLM	-0.555 ± 0.63
IRSPDAVNSNCATPRMRVY	0.499 ± 0.36
CNIRAYDIISTLMHFVLCH	-1.67 ± 0.55
IFCCIRFLV	6.549 ± 0.03
KPCSGIRVCIDLCYPP	0.383 ± 0.74
AFIRPIVSLVVLSQGV	0.827 ± 0.6
SMNPWYIHWLI	0.003 ± 0.79
SGIGY	0.561 ± 0.62
AKYSSLKNMLYGFRRDANMG	0.296 ± 0.65
HINMIGWEFSVGYGWQ	4.9 ± 0.061
VGKMVNVDGRSPSCWSVWH	0.47 ± 0.13
LNEVFDLVPSYCKFSVVRGL	-1.14 ± 0.64
FSSLIKTICLMTAMAEGMSP	-0.258 ± 0.76
SLSPIYDDLASVVAGTYEIK	-1.27 ± 0.75
NLHFCVQKSGESASRVVHHA	0.958 ± 0.46
TNYKRCCV	-0.12 ± 0.32
RRFPRHLASGRMPV	1.41 ± 0.32
YSYPRS	inactive
WKFRNN	inactive
KRSLIINGAATT	1.61 ± 0.26
IARIRILCLL	0.234 ± 0.19
RFYRIDAKVAYQWAYQF	3.94 ± 0.12
GCVCDVGPVTVRGVNGVLVS	1.45 ± 0.26
LYGIVITTLSSYCGGFLNSR	inactive

Substance	amyloid nucleation score
SVRVA	1.66 ± 0.26
NRKWIDRLVYKGNNPYHGEV	0.906 ± 0.57
TYVYKYLFWSIPCMA	0.715 ± 0.66
CGVFCLV	1.44 ± 0.41
KNINWILNAGSMLVSFYRPW	7.328 ± 0.065
NCHFTCMPAACGETVKTY	0.597 ± 0.45
ASRNLMYVHNFSSAGLKVLP	0.178 ± 0.65
AVMTRFEDVYDCAVSTCKMG	-0.363 ± 1
YMSGILASIRKSILQGRSRE	-1.41 ± 0.49
GSVRYWK	-0.685 ± 0.36
SGYFFPRL	-0.73 ± 1.1
CEFALYAFWCCIYLRFNKYS	-0.606 ± 0.44
RDLARTMI	1.67 ± 0.34
YWSMSVMVNMKFPCGNCWVR	2.24 ± 0.11
TGYVE	0.293 ± 0.26
LLTMGVGRVGAWEQN	0.801 ± 0.82
MLYVVCFCILVFLFHTNRMR	-0.674 ± 0.32
LAWITKSMFLL	0.672 ± 0.56
NHIFYRMCSNLTAKYIRLTS	inactive
RYNILSSSATV	inactive
KNGQYDGTGDNSLLGPDGFI	3.44 ± 0.075
RCTGVMPV	-0.072 ± 1.1
FSKGEATDCSWQ	0.918 ± 0.34
FDGLHVYQCWTPVNIARVEE	0.099 ± 0.62
FKSIDISAFSSSSHTGSYLG	0.578 ± 0.81

Substance	amyloid nucleation score
IMLKGDWC	-0.189 ± 0.47
SSFNTDFACSWVGYMAVVSM	-0.771 ± 1.1
KYNDGEFIVVIVGILAYAVV	-0.238 ± 0.34
YGNSYRG	-0.044 ± 0.55
LCRYTCSSLSVYLNNMILCG	1.33 ± 0.13
HIYRKM	0.151 ± 0.2
SVCLSSYFHCKRSVMWFYKV	-0.363 ± 0.74
VLGGPTVRLSWFPSSGLACY	0.23 ± 0.65
YHSWVGFIRYPIISWGRMMG	inactive
FKQYFSYLVGLYRS	0.472 ± 0.8
SECCLVELINLTDGGMRGSA	0.5 ± 0.42
YCFMVRFRYGPLREMTNCSK	-0.34 ± 0.62
TRYTRGSALCTLDGKIYMMK	1.29 ± 0.4
ITCVVLPLSRWDVHFKCSCH	0.096 ± 0.31
ENLYGFWYLTRCRMF	-0.096 ± 0.39
RLFTRANCIHFRERKVRKIH	0.078 ± 0.29
NDLSNGSVESMRQYYYLREN	-0.724 ± 0.3
GDIMKCSRCSATLGEPMKRC	0.218 ± 1.1
ALSNGNVLHGLSMLSYMHCW	-0.388 ± 1.1
VLSSRSEDTGQACEVIICVV	0.693 ± 0.34
YGRIR	-0.131 ± 0.63
YCSWFVWSTANVSMAYIVEF	-0.892 ± 0.41
RRWDHRIHGILSISDIIFLR	inactive
GMEINAYY	0.048 ± 0.65
SGYSPSLFCKVFPWANELCS	-1.12 ± 1.1

Substance	amyloid nucleation score
SRNRFHSYLMSRCNMWQLHY	0.287 ± 0.33
TLNVRIAS	-0.124 ± 0.62
LLFLRYVVYFGNLDCLGLYM	-1.44 ± 1
ACLHFVSYSELAVFDFSFGK	6.89 ± 0.079
PHKSAGGRLSMFGAKHGDMV	0.822 ± 0.49
FCPVFST	-0.127 ± 1
RFGLGINLLIGVRLLCLALL	0.043 ± 1
KLFSYPIWWSRYCRMGRHRC	0.374 ± 0.28
LTIRGKVTSTVAMLLDFLDS	5.86 ± 0.062
LSPYYSLCVSGSTWSAVQPL	0.476 ± 0.51
VKALNKLGAKINLMIRFVRS	-0.306 ± 0.39
FFNLNQLMFKELSMRLGHRY	0.066 ± 0.74
SISVAVRSCQVTVPGKCDCA	7.756 ± 0.035
SVRLNFEFRDYDCRQVLSIF	-0.825 ± 1.1
NDWLSHGR	4.31 ± 0.054
NRCYHFRDCQVYLTQDASWA	8.515 ± 0.048
GQIAKVKPVRWKFKTTTWGS	1.26 ± 0.41
TMFEGFRCLRR	0.923 ± 0.81
NPRTQF	-0.108 ± 0.28
APPLTLELQYGWPLQRPLTK	0.275 ± 0.33
CWARMWGYSKCHSRVFSYMS	-1.1 ± 0.55
FTSMLS	0.374 ± 0.64
YVRNFPLGLSV	-1.63 ± 1.1
LSILCGDCSDGRS	-0.245 ± 0.2
ITHQRSSACIVGFILRRRCN	-0.369 ± 0.54

Substance	amyloid nucleation score
SLNKNINRYFGFWYPDSPLL	-1.22 ± 0.78
FVLCYTTGFLVTFLLEWFFS	0.228 ± 1
KTGYINCSIMDYMV	inactive
ESISTVITLRGLMLITTGYN	4.12 ± 0.097
KLQRTGLYCYLY	-0.912 ± 0.42
EVWYSPDLTLLVYPTPR	1.46 ± 0.4
SLSLINRSVVDAWRGRDGVR	5.107 ± 0.034
HGGQRMCAGCV	0.865 ± 0.31
TLSSFL	-1.55 ± 0.41
RISRFMPCSRS	1.11 ± 0.52
TWYPIAFKTGCEMLTERSM	6.435 ± 0.035
YCYLMMEAWHMEANWYHCFV	-0.209 ± 0.2
VMNDLILSKAVLGFELRLWG	4.23 ± 0.066
RMPVLSCDCRFFYVLSRVNE	-0.566 ± 1
LNVMFCNVVNGFYYMDSFVC	6.838 ± 0.044
VLVDTSDRWLMARWLGVPKP	4.79 ± 0.084
DPLPMSYRVYSARSW	-0.81 ± 1
YQSFFVINLYNGLHTRGMRV	7.701 ± 0.055
SQYMVGPGKRRKKSYGVG	inactive
LYSTRRCHVRELVPLLGARS	0.362 ± 0.25
VFLVCYTYLWTFKSCTYFMN	-1.88 ± 0.78
KLSGC	0.265 ± 1.1
NVWILNNYGQCIKS	5.254 ± 0.023
